Measured values from paper PMC2908990.

Molecular target: CH1 domain of the murine IgG1 heavy chain, oxidized (internal disulfide bridge formed) (murine) [IgG part: P01868]
Assay: other fluorescence titration

- Kd: 6.2 µM
Substance: CL domain of the murine MAK33 κ light chain (from UniProt P01837 1-107) (domain or fragment)
